Measured values published in patent US20260015316.
pKd: −log10 of the molar value.

System: ONECUT2 (OC2) HOX domain
Assay: SPR
Settings: OC2 HOX fragment; DNA probe sequence not given

PEG10 promoter OC2 binding motif probe
pKd: 9.00
